Sequences and labels used below:
B1: Hu3A5(V11) antibody (antibody, V domains shown)
VH: EVQLVQSGSELKKPGASVKVSCKASGYTFTSYWMHWMRQAPGQGLEWIGVIDPSDSYTSYNQGFTGRFVLSVDTSVSTAYLQISSLKAEDTAVYYCARGGKRAMDYWGQGTTVTVSS
VL: DVVMTQSPDSLAVSLGERATINCKSSQSLVHSNGNTYLHWYQQKPGQPPKLLIYKVSNRFSGVPDRFSGSGSGTDFTLTISSLQAEDVAVYFCSQSTHVPFTFGGGTKLEIK
B2: Hu3A5(V12) antibody (antibody, V domains shown)
VH: EVQLVQSGSELKKPGASVKVSCKASGYTFTSYWMHWMRQAPGQGLEWIGVIDPSDSYTSYNQGFTGRFVLSVDTSVSTAYLQISSLKAEDTAVYYCARGGKRAMDYWGQGTTVTVSS
VL: DVVMTQSPDSLAVSLGERATINCKSSQSLVHSNGNTYLHWYQQKPGQPPKLLIYKVSNRFSGVPDRFSGSGSGTDFTLTISSLQAEDVAVYYCSQSTHVPFTFGGGTKLEIK
B3: Hu3A5(V16) antibody (antibody, V domains shown)
VH: QVQLVQSGSELKKPGASVKVSCKASGYTFTSYWMNWVRQAPGQGLEWMGVIDPSDSYTSYNQGFTGRFVFSVDTSVSTAYLQISSLKAEDTAVYYCARGGKRAMDYWGQGTTVTVSS
VL: DVVMTQSPDSLAVSLGERATINCKSSQSLVHSNGNTYLHWYQQKPGQPPKLLIYKVSNRFSGVPDRFSGSGSGTDFTLTISSLQAEDVAVYYCSQSTHVPFTFGGGTKLEIK
B4: Hu3A5(V15) antibody (antibody, V domains shown)
VH: QVQLVQSGSELKKPGASVKVSCKASGYTFTSYWMNWVRQAPGQGLEWMGVIDPSDSYTSYNQGFTGRFVFSVDTSVSTAYLQISSLKAEDTAVYYCARGGKRAMDYWGQGTTVTVSS
VL: DVVMTQSPDSLAVSLGERATINCKSSQSLVHSNGNTYLHWYQQKPGQPPKLLIYKVSNRFSGVPDRFSGSGSGTDFTLTISSLQAEDVAVYFCSQSTHVPFTFGGGTKLEIK
B5: Hu3A5(V1) antibody (antibody, V domains shown)
VH: EVQLVQSGAEVKKPGASVKVSCKASGYTFTSYWMHWMRQAPGQGLEWIGVIDPSDSYTSYNQKFQGRVTLTVDTSTSTAYMELSSLRSEDTAVYYCARGGKRAMDYWGQGTTVTVSS
VL: DVVMTQSPLSLPVTLGQPASISCRSSQSLVHSNGNTYLHWFQQRPGQSPRLLIYKVSNRFSGVPDRFSGSGSGTDFTLKISRVEAEDVGVYFCSQSTHVPFTFGGGTKLEIK
B6: Hu3A5 (V9) antibody (antibody, V domains shown)
VH: EVQLVQSGSELKKPGASVKVSCKASGYTFTSYWMHWMRQAPGQGLEWIGVIDPSDSYTSYNQGFTGRFVLSVDTSVSTAYLQISSLKAEDTAVYYCARGGKRAMDYWGQGTTVTVSS
VL: DVVMTQSPLSLPVTLGQPASISCRSSQSLVHSNGNTYLHWFQQRPGQSPRLLIYKVSNRFSGVPDRFSGSGSGTDFTLKISRVEAEDVGVYFCSQSTHVPFTFGGGTKLEIK
B7: Hu3A5 (V3) antibody (antibody, V domains shown)
VH: EVQLVQSGAEVKKPGASVKVSCKASGYTFTSYWMHWMRQAPGQGLEWIGVIDPSDSYTSYNQKFQGRVTLTVDTSTSTAYMELSSLRSEDTAVYYCARGGKRAMDYWGQGTTVTVSS
VL: DVVMTQSPDSLAVSLGERATINCKSSQSLVHSNGNTYLHWYQQKPGQPPKLLIYKVSNRFSGVPDRFSGSGSGTDFTLTISSLQAEDVAVYFCSQSTHVPFTFGGGTKLEIK
B8: Hu3A5 (V8) antibody (antibody, V domains shown)
VH: QVQLVQSGAEVKKPGASVKVSCKASGYTFTSYWMHWVRQAPGQGLEWMGVIDPSDSYTSYNQKFQGRVTMTVDTSTSTAYMELSSLRSEDTAVYYCARGGKRAMDYWGQGTTVTVSS
VL: DVVMTQSPDSLAVSLGERATINCKSSQSLVHSNGNTYLHWYQQKPGQPPKLLIYKVSNRFSGVPDRFSGSGSGTDFTLTISSLQAEDVAVYYCSQSTHVPFTFGGGTKLEIK
B9: Hu3A5 (V4) antibody (antibody, V domains shown)
VH: EVQLVQSGAEVKKPGASVKVSCKASGYTFTSYWMHWMRQAPGQGLEWIGVIDPSDSYTSYNQKFQGRVTLTVDTSTSTAYMELSSLRSEDTAVYYCARGGKRAMDYWGQGTTVTVSS
VL: DVVMTQSPDSLAVSLGERATINCKSSQSLVHSNGNTYLHWYQQKPGQPPKLLIYKVSNRFSGVPDRFSGSGSGTDFTLTISSLQAEDVAVYYCSQSTHVPFTFGGGTKLEIK
B10: Hu3A5 (V6) antibody (antibody, V domains shown)
VH: QVQLVQSGAEVKKPGASVKVSCKASGYTFTSYWMHWVRQAPGQGLEWMGVIDPSDSYTSYNQKFQGRVTMTVDTSTSTAYMELSSLRSEDTAVYYCARGGKRAMDYWGQGTTVTVSS
VL: DVVMTQSPLSLPVTLGQPASISCRSSQSLVHSNGNTYLHWFQQRPGQSPRLLIYKVSNRFSGVPDRFSGSGSGTDFTLKISRVEAEDVGVYYCSQSTHVPFTFGGGTKLEIK
B11: Hu3A5(V13) antibody (antibody, V domains shown)
VH: QVQLVQSGSELKKPGASVKVSCKASGYTFTSYWMNWVRQAPGQGLEWMGVIDPSDSYTSYNQGFTGRFVFSVDTSVSTAYLQISSLKAEDTAVYYCARGGKRAMDYWGQGTTVTVSS
VL: DVVMTQSPLSLPVTLGQPASISCRSSQSLVHSNGNTYLHWFQQRPGQSPRLLIYKVSNRFSGVPDRFSGSGSGTDFTLKISRVEAEDVGVYFCSQSTHVPFTFGGGTKLEIK
B12: Hu3A5 (V5) antibody (antibody, V domains shown)
VH: QVQLVQSGAEVKKPGASVKVSCKASGYTFTSYWMHWVRQAPGQGLEWMGVIDPSDSYTSYNQKFQGRVTMTVDTSTSTAYMELSSLRSEDTAVYYCARGGKRAMDYWGQGTTVTVSS
VL: DVVMTQSPLSLPVTLGQPASISCRSSQSLVHSNGNTYLHWFQQRPGQSPRLLIYKVSNRFSGVPDRFSGSGSGTDFTLKISRVEAEDVGVYFCSQSTHVPFTFGGGTKLEIK
B13: Hu3A5(V14) antibody (antibody, V domains shown)
VH: QVQLVQSGSELKKPGASVKVSCKASGYTFTSYWMNWVRQAPGQGLEWMGVIDPSDSYTSYNQGFTGRFVFSVDTSVSTAYLQISSLKAEDTAVYYCARGGKRAMDYWGQGTTVTVSS
VL: DVVMTQSPLSLPVTLGQPASISCRSSQSLVHSNGNTYLHWFQQRPGQSPRLLIYKVSNRFSGVPDRFSGSGSGTDFTLKISRVEAEDVGVYYCSQSTHVPFTFGGGTKLEIK
B14: Hu3A5(V10) antibody (antibody, V domains shown)
VH: EVQLVQSGSELKKPGASVKVSCKASGYTFTSYWMHWMRQAPGQGLEWIGVIDPSDSYTSYNQGFTGRFVLSVDTSVSTAYLQISSLKAEDTAVYYCARGGKRAMDYWGQGTTVTVSS
VL: DVVMTQSPLSLPVTLGQPASISCRSSQSLVHSNGNTYLHWFQQRPGQSPRLLIYKVSNRFSGVPDRFSGSGSGTDFTLKISRVEAEDVGVYYCSQSTHVPFTFGGGTKLEIK
notes: also called humanized 3A5(V10) antibody; humanized Hu3A5(V10) antibody
B15: Hu3A5 (V7) antibody (antibody, V domains shown)
VH: QVQLVQSGAEVKKPGASVKVSCKASGYTFTSYWMHWVRQAPGQGLEWMGVIDPSDSYTSYNQKFQGRVTMTVDTSTSTAYMELSSLRSEDTAVYYCARGGKRAMDYWGQGTTVTVSS
VL: DVVMTQSPDSLAVSLGERATINCKSSQSLVHSNGNTYLHWYQQKPGQPPKLLIYKVSNRFSGVPDRFSGSGSGTDFTLTISSLQAEDVAVYFCSQSTHVPFTFGGGTKLEIK
B16: Hu3A5 (V2) antibody (antibody, V domains shown)
VH: EVQLVQSGAEVKKPGASVKVSCKASGYTFTSYWMHWMRQAPGQGLEWIGVIDPSDSYTSYNQKFQGRVTLTVDTSTSTAYMELSSLRSEDTAVYYCARGGKRAMDYWGQGTTVTVSS
VL: DVVMTQSPLSLPVTLGQPASISCRSSQSLVHSNGNTYLHWFQQRPGQSPRLLIYKVSNRFSGVPDRFSGSGSGTDFTLKISRVEAEDVGVYYCSQSTHVPFTFGGGTKLEIK

One assay addresses CD47 on CD47-overexpressing breast cancer cell line MCF-7 (UniProt Q08722). The assay is described as follows: flow cytometry on MCF-7 cells, PE anti-human CD47, 5 µl. (In general: A flow cytometer gives signals particle by particle.)
Take “CD47 antibody (Biolegend PE anti-human CD47, cat #323108)”: the Mean stood at 11900 and the Median turned out to be 11000.

The target in a further assay is T1, CD47 protein (Acrobiosystems, cat #CD7-HA2E9) (UniProt Q08722 19-139).
T1 construct: Bought recombinant protein coated on the ELISA plate at 100 ng/well; also called CD47 antigen; CD47 peptide
T1 sequence (Q08722 19-139 limits assumed): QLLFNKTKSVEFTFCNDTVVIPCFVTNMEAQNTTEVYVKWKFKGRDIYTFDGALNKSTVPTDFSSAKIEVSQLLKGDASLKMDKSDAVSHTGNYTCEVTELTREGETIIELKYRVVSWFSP
The assay is described as follows: ELISA, CD47 protein coated 100 ng/well, 0.8 µg antibody per well. As for the experimental part:
The purified 0.8 μg humanized antibody was treated in each well, and then reacted at room temperature for 2 hours, and then washed 3 times with 1×PBST. Secondary antibody ([…], 1:5,000) was treated and reacted at room temperature for 30 minutes, washed 3 times with 1×PBST, and then treated with TMB for color development and reacted at room temperature for 5 minutes. Finally, the reaction was terminated by treatment with a stop solution of 1 N H₂SO₄, and then the absorbance was measured at 450 nm.
(In an ELISA, binding on a coated surface is turned into a signal by an enzyme label.)
In turn, B1 showed an OD450 measurements of 2.81 OD450.

The molecule B2 showed an OD450 measurements of 2.85 OD450.

Turning to B3, the OD450 measurements was 0.106 OD450.

For B4, the OD450 measurements is 0.111 OD450.

B5 returned an OD450 measurements of 2.58 OD450.

B6: the OD450 measurements came out at 2.65 OD450.

The molecule B7 yielded an OD450 measurements of 2.54 OD450.

Molecule B8 gave an OD450 measurements of 2.45 OD450.

Molecule B9 returned an OD450 measurements of 2.74 OD450.

With B10, the OD450 measurements came out at 2.62 OD450.

In the case of B11, the OD450 measurements was determined as 0.0966 OD450.

For the molecule B12, the OD450 measurements is 2.57 OD450.

Molecule B13 registered an OD450 measurements of 0.147 OD450.

Molecule B14 yielded an OD450 measurements of 2.81 OD450.

Consider B15, for which the OD450 measurements is 2.67 OD450.

B16 came in with an OD450 measurements of 2.69 OD450.

A further assay deals with CD47 on CD47-overexpressing breast cancer cell line MCF-7 (UniProt Q08722). The assay is described as follows: flow cytometry on MCF-7 cells, secondary antibody alone (background control).
Chain of CD47 on CD47-overexpressing breast cancer cell line MCF-7 (Q08722 19-323 limits assumed): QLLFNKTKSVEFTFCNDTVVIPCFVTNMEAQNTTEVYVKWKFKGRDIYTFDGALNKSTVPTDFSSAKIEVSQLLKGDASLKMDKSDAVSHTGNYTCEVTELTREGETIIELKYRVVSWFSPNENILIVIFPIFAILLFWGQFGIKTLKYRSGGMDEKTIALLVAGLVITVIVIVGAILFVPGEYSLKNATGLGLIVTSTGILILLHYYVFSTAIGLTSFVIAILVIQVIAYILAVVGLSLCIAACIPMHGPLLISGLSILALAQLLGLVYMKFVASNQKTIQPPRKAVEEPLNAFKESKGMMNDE
The molecule “PE-conjugated goat anti-mouse IgG antibody (Biolegend Inc., cat #405307)” returned a Mean of 80 and a Median of 73.9.
